In article PMC7703752, “Proteome-level assessment of origin, prevalence and function of leucine-aspartic acid (LD) motifs” (Bioinformatics, 2019) one finds binding result and Kd data, which are given here for 7 molecules.

Test [1] deals with T1, Human α-parvin-CHC (residues 242-372) (human, UniProt Q9NVD7 242-372).
T1 construct: α-parvin, human, C-terminal CH domain, residues 242-372; also called second CH domain of α-parvin; source: E. coli BL21, expressed as GST-fusion protein (pGex 6P1), purified as described previously (Lorenz et al., 2008)
T1 sequence (looked up): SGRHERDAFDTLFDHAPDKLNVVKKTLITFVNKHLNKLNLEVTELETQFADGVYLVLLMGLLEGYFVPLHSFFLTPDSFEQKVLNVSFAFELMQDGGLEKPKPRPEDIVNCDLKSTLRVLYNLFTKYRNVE
In words: fluorescence polarisation; anisotropy competition assay (ACA): 10 μM FAT or 25 μM α-parvin with 0.1 μM FITC-Ahx-LD4; unlabelled peptide added at 100 and 250 μM. The settings on record: both partners purified.

Test [2] has as its target T2, FAT domain of human FAK (892-1052) (human, UniProt Q05397 892-1052).
T2 construct: focal adhesion kinase (FAK), human, FAT domain, residues 892-1052; 15N-labelled (M9 minimal medium) in the NMR titrations; also called FAK FAT; focal adhesion targeting domain; source: E. coli BL21, expressed as GST-fusion protein (pGexP2), purified as described previously (Arold et al., 2002)
T2 sequence (looked up): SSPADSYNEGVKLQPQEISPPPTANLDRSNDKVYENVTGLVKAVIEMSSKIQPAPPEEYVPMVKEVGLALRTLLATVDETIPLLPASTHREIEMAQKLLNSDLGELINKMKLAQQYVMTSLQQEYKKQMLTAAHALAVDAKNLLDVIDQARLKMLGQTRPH
In words: differential scanning fluorimetry; 10 μM protein, peptide at 100 and 250 μM, SYPRO Orange; 20 mM HEPES pH 7.5, 150 mM NaCl, 2 mM EDTA, 1 mM TCEP; 20 to 95 °C. As to conditions: both partners purified.

Test [3] has as its target T3, rat GIT1 (647-770) (rat, UniProt Q9Z272 647-770).
T3 construct: also called GIT1 FAH; GIT1 FAH domain; source: E. coli BL21, expressed as GST-fusion protein (pGex-4T1), purified as described previously (Schmalzigaug et al., 2007)
T3 sequence (looked up): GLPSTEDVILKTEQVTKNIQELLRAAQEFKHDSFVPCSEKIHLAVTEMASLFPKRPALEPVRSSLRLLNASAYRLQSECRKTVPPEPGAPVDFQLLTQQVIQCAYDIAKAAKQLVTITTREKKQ
In words: fluorescence polarisation + MST; 'additional DA and MST experiments' with GIT1: GIT1 serially diluted (MST from 630 μM, standard capillaries, 25 °C), FITC-Ahx peptide 0.1 μM; 20 mM HEPES pH 7.5, 150 mM NaCl, 2 mM EDTA, 2 mM DTT, Tween-20. As to conditions: both partners purified.

For test [4], the target named is T2, FAT domain of human FAK (892-1052). In words: fluorescence polarisation + MST; the 'quantitative' methods, summed up in one sentence for each peptide: direct anisotropy (protein serially diluted, FITC-Ahx peptide 0.1 μM; 20 mM HEPES pH 7.5, 150 mM NaCl, 2 mM EDTA, 2 mM DTT, 0.005% Tween-20; room temperature) and MST (protein diluted from 560 μM FAT or 530 μM α-parvin, labelled peptide 0.1 μM, 0.05% Tween-20, 25 °C); ITC in selected cases. The settings on record: both partners purified.

For test [5], the target named is T1, Human α-parvin-CHC (residues 242-372). The test is described as above. The settings on record: both partners purified.
In test [6] the target is T2, FAT domain of human FAK (892-1052). Description: fluorescence polarisation + other: differential scanning fluorimetry; the 'qualitative' methods, summed up in one sentence for each peptide: anisotropy competition (unlabelled peptide at 100 and 250 μM against 0.1 μM FITC-Ahx-LD4 with 10 μM FAT or 25 μM α-parvin) and DSF (10 μM protein, peptide at 100 and 250 μM; 20 mM HEPES pH 7.5, 150 mM NaCl, 2 mM EDTA, 1 mM TCEP). The settings on record: both partners purified.

Test [7] deals with T1, Human α-parvin-CHC (residues 242-372). Described as above. As to conditions: both partners purified.
The target of test [8] is T4, FAT domain of human FAK (892–1052) (human, UniProt Q05397 892-1052).
T4 chain: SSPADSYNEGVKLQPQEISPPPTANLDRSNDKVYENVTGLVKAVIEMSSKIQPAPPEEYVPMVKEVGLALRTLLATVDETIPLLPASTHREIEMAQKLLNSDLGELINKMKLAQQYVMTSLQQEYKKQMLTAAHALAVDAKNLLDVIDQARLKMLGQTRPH
Description: MST.

Test [9] has as its target T5, rat GIT1 (647-770) (rat, UniProt Q9Z272 647-770).
T5 chain: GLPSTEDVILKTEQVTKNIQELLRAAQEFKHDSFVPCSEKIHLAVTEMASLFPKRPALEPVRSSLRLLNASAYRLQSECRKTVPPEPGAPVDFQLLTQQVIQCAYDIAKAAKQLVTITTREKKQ
Description: MST.

Test [10] deals with T6, Human α-parvin-CHC (residues 242–372) (human, UniProt Q9NVD7 242-372).
T6 chain: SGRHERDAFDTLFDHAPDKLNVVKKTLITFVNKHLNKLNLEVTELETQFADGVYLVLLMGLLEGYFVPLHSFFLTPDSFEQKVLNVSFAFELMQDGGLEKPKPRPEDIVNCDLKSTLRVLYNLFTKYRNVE
Description: MST.

The target of test [11] is T4, FAT domain of human FAK (892–1052). In words: FP.
Test [12] deals with T5, rat GIT1 (647-770). Description: FP.
Test [13] has as its target T6, Human α-parvin-CHC (residues 242–372). In words: FP.
The target in test [14] is T7, Human α-parvin-CHC (residues 242–372) (human, UniProt Q9NVD7 242-372).
T7 construct: α-parvin, human, second CH domain (CHC), residues 242-372; Purification and fate of the GST are told only in the Supplementary Material and in the cited work (Lorenz et al., 2008); also called second CH domain of α-parvin; source: E. coli BL21, expressed as GST-fusion protein
T7 sequence (looked up): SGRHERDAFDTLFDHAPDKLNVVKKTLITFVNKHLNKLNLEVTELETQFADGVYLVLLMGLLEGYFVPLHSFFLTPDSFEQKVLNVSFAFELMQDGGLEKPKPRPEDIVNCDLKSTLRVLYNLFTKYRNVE
In words: fluorescence polarisation + MST + ITC + other: differential scanning fluorimetry; synthesized peptides against recombinant LDBDs in vitro; direct anisotropy with labelled candidate peptides, anisotropy competition of unlabelled peptides against fluorescently labelled known LD motifs, ITC, MST and DSF summed up together; 25°C, 20 mM HEPES pH 7.5, 150 mM NaCl, 2 mM EDTA, 1 mM TCEP, unless stated otherwise. The settings on record: both partners purified.

The target in test [15] is T8, FAT domain of human FAK (892–1052) (human, UniProt Q05397 892-1052).
T8 construct: focal adhesion kinase (FAK), human, FAT domain, residues 892-1052; 15N-labelled for the NMR titrations; Purification and fate of the GST are told only in the Supplementary Material and in the cited work (Arold et al., 2002); also called FAK FAT; four-helix FAT domain from FAK; source: E. coli BL21, expressed as GST-fusion protein
T8 sequence (looked up): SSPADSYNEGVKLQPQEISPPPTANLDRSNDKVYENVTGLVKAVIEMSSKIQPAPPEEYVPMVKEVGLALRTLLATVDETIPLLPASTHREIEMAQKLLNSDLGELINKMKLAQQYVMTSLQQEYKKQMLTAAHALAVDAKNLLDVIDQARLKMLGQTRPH
The test is described as above. As to conditions: both partners purified.

The target of test [16] is T2, FAT domain of human FAK (892-1052). In words: fluorescence polarisation + MST; the 'quantitative' methods, summed up in one sentence for each peptide: direct anisotropy (protein serially diluted, FITC-Ahx peptide 0.1 μM; 20 mM HEPES pH 7.5, 150 mM NaCl, 2 mM EDTA, 2 mM DTT, 0.005% Tween-20; room temperature) and MST (protein diluted from 560 μM FAT or 530 μM α-parvin, labelled peptide 0.1 μM, 0.05% Tween-20, 25 °C); ITC in selected cases. As to conditions: both partners purified. This is another data set of the same source.

The target of test [17] is T1, Human α-parvin-CHC (residues 242-372). Described as above. As to conditions: both partners purified. This is another data set of the same source.
Test [18] addresses T2, FAT domain of human FAK (892-1052). Description: fluorescence polarisation; direct anisotropy: FAT or α-parvin titrated, FITC-Ahx-labelled LD4 at 0.1 μM; 20 mM HEPES pH 7.5, 150 mM NaCl, 2 mM EDTA, 2 mM DTT, 0.005% Tween-20; room temperature. As to conditions: both partners purified.
Test [19] deals with T1, Human α-parvin-CHC (residues 242-372). The test is described as above. The settings on record: both partners purified.
Test [20] has as its target T4, FAT domain of human FAK (892–1052). Description: ITC.
The target of test [21] is T5, rat GIT1 (647-770). Description: ITC.

Where no end group is shown, it is not given here. The star is where a group is joined. FITC = O=C1OC2(c3ccc(O)cc3Oc3cc(O)ccc32)c2ccc(NC(=S)*)cc21; Ahx = NCCCCCC(=O)O

B1: paxillin LD4 peptide, unlabelled (peptide)
peptide: SASSATRELDELMASLSD
notes: paxillin, human, LD4 motif with flanking residues; form without label, used in ACA, DSF, ITC and NMR; source: synthetic peptide, bought: GenScript
Turning to B1, the binding result in test [1] and in [2] was “binds” each time.

B2: RALGAPA1 LD motif peptide, FITC-Ahx-labelled (peptide)
peptide: {FITC-Ahx}-EDVLDELLQYLGVT
notes: core motif 1680-1689; labelled form, used in direct anisotropy and MST; also called RGPA1; source: synthetic peptide, bought: GenScript
Regarding B2, the Kd in the test with rat GIT1 (647-770) [3] was roughly 80 µM. The binding result in test [4] and in [5] was “binds” in each case.

B3: C16orf71 LD motif peptide, unlabelled (peptide)
peptide: EAWDLDDILQSLQGQ
notes: Uncharacterized protein C16orf71, human; core motif 267-276; form without label, used in ACA and DSF; also called CP071; source: synthetic peptide, bought: GenScript
With B3, the binding result in test [6] and in [7] was “binds” each time.

B4: RALGAPA1 LD motif peptide (peptide)
peptide: EDVLDELLQYLGVT
modifications: also: N-terminal FITC-Ahx only in labelled form
notes: predicted LD motif of human RALGAPA1; also called RGPA1; source: synthetic peptide, bought: GenScript
As to B4, the Kd in test [8] stood at 42.5 µM; with rat GIT1 (647-770) [9], 77.5 µM; in test [10] it was 25.7 µM; in test [11] it was 43.6 µM; in the test with rat GIT1 (647-770) [12], 88 µM; in test [13] it was 49.4 µM. In addition, the binding result in test [14] and in test [15] was “binds” in each case.

B5: C16orf71 LD motif peptide, FITC-Ahx-labelled (peptide)
peptide: {FITC-Ahx}-EAWDLDDILQSLQGQ
notes: Uncharacterized protein C16orf71, human; core motif 267-276; labelled form, used in direct anisotropy and MST; also called CP071; source: synthetic peptide, bought: GenScript
As for B5, the binding result in [16] and in test [17] was “binds” throughout.

B6: paxillin LD4 peptide, FITC-Ahx-labelled (peptide)
peptide: {FITC-Ahx}-SASSATRELDELMASLSD
notes: paxillin, human, LD4 motif with flanking residues; also called labelled LD4; FITC-Ahx-labelled LD4; source: synthetic peptide, bought: GenScript
Take B6: the Kd in test [18] is 10 µM; in test [19], 25 µM.

B7: EPB41L5 (Band 4.1-like protein 5) LD motif peptide (peptide)
peptide: ATDELDALLASLTENLID
modifications: also: N-terminal FITC-Ahx only in labelled form
notes: predicted LD motif of human EPB41L5 (Band 4.1-like protein 5); also called E41L5; YMO1; source: synthetic peptide, bought: GenScript
For B7, the Kd in [8] is 13 µM; in [10], 4 µM; in test [11] it was 2.7 µM; with rat GIT1 (647-770) [12], 83.6 µM; in [13], 28.2 µM; in [20] it was 6 µM. This molecule also returned a Kd with rat GIT1 (647-770) [21] of 39.3 µM. In addition, the binding result in [14] and in test [15] was “binds” in each case.
